Like-named read-outs stand apart in the source and are kept apart here.
Assays:
Test in all cases: FACS binding
[1] = target: CHOS-hCCR8-hCTLA-4 cell (human) (UniProt P16410)
[2] = target: CHOS-hCCR8-hCTLA-4 cell (human) (UniProt P16410); remark: listed apart in the source
[3] = target: CHOS-hCCR8-hCTLA-4 cell (human) (UniProt P16410); remark: listed apart in the source

Chain of CHOS-hCCR8-hCTLA-4 cell (human) (P16410 36-223, chain 1 of 2): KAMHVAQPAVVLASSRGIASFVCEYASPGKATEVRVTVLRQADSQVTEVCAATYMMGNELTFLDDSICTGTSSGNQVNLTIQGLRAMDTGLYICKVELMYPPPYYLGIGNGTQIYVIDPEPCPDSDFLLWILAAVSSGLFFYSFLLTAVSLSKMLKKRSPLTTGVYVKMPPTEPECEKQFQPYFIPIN
Chain of CHOS-hCCR8-hCTLA-4 cell (human) (P51685 whole entry, chain 2 of 2, further chain): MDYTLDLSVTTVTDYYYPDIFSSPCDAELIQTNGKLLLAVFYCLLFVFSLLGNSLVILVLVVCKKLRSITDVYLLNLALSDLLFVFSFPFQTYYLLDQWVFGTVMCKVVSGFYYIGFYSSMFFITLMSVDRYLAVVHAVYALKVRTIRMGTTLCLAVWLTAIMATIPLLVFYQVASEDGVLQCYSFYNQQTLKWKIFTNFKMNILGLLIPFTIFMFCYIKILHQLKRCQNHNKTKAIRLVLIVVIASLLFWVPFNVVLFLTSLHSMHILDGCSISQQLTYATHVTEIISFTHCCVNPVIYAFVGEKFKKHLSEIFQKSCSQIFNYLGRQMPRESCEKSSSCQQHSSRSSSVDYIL

EC50 [1]: 0.722 nM
EC50 [2]: 0.682 nM
EC50 [3]: 0.75 nM
Substance: Yervoy

From US20260234261A1
